Laboratory results from IntAct's records for PubMed 19737519.

Tests used:
[1] = biological target: nle1_yeast RSA4 (UniProt P25382)
[2] = biological target: nle1_yeast RSA4 (UniProt P25382); remark: listed apart in the source

Chain of UniProt P25382 (P25382 whole entry): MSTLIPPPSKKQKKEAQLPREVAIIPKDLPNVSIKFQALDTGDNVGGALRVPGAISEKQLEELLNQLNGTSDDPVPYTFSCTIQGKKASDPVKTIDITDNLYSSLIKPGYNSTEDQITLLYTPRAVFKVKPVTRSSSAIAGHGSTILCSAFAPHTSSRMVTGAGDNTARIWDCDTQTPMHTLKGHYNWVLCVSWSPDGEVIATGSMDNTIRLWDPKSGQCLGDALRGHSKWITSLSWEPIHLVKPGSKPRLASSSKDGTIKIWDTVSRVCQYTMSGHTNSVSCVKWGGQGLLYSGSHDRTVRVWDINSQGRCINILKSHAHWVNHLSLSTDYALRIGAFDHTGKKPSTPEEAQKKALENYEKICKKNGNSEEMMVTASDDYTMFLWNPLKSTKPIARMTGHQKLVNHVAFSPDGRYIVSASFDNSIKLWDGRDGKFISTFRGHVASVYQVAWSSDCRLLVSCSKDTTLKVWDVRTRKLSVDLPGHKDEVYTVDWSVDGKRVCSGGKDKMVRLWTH

Substance | effect of a mutation on the interaction [1] | effect of a mutation on the interaction [2]
Midasin (Saccharomyces cerevisiae), Q12019 S4712T | decreasing interaction | 
Midasin (Saccharomyces cerevisiae), Q12019 S4712A;S4714A | disrupting interaction | decreasing interaction
